Molecular target: T1, RANK (Receptor Activator for Nuclear Factor κB) (UniProt Q9Y6Q6 30-616, limits assumed)
T1 construct: whole, on cells; Endogenous receptor on THP1 monocytes; also called RANKL receptor
T1 sequence (looked up): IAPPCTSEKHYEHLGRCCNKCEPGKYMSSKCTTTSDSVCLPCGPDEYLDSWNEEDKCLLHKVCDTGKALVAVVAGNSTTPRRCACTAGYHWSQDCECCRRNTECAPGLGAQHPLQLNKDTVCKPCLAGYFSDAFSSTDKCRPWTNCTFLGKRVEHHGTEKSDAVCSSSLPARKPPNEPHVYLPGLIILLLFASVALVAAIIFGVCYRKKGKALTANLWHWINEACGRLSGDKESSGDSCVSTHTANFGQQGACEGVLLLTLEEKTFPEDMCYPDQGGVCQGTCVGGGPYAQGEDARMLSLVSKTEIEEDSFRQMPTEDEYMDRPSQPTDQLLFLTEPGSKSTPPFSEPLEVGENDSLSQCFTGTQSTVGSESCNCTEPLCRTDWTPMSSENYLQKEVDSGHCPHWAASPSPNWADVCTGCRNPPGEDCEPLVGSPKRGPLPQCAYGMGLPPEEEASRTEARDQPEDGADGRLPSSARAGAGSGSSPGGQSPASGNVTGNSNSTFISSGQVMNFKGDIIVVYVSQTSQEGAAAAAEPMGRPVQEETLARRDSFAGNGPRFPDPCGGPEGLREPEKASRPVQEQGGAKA
Test: flow cytometry; 5 µg RIG on 1*10^6 THP1 monocytes, detected with FITC labeled anti human RANKL antibody
Method: 1*10⁶ THP1 monocytes were grown in MCSF and RANKL medium for 72 hours and mixed with 5 μg purified RIG protein from Implementation 1 for additional 1 hour at 4° C. 5 μl FITC labeled anti human RANKL antibody (CALTAG, CA) was then added into the mixture and flow cytometry was used to examine FITC positive cells. […] In FIG. 4, SSC-H presents the pellet number in cytoplasm, FSC-H presents the cell size, FL2-H presents PE and FL1-H presents FITC.

binding result: binds
B1: fusion protein RIG (Fc fusion)
chain: MRRASRDYTKYLRGSEEMGGGPGAPHEGPLHAPPPPAPHQPPAASRSMFVALLGLGLGQVVCSVALFFYFRAQMDPNRISEDGTHCIYRILRLHENADFQDTTLESQDTKLIPDSCRRIKQAFQGAVQKELQHIVGSQHIRAEKAMVDGSWLDLAKRSKLEAQPFAHLTINATDIPSGSHKVSLSSWYHDRGWAKISNMTFSNGKLIVNQDGFYYLYANICFRHHETSGDLATEYLQLMVYVTKTSIKIPSSHTLMKGGSTKYWSGNSEFHFYSINVGGFFKLRSGEEISIEVSNPSLLDPDQDATYFGAFKVRDIDGSEPKSCDKTHTCPPCPAPELLGGPSVFLFPPKPKDTLMISATPEVTCVVVDVSHEDPEVKFMWYVDGVEVHNAKTKPAEEQYNSTYAVVSVLTVLHQDWLNGKEYKCKVSNKALPAPIEKTISKAKGQPAEPQVYTLPPSRDELTYNQVSLTCLVKGFYPSDIAVEWESNGQPENNYKTTPPVLDSDGSFFLYSKLTVDKSRWQQGNVFSCSVMHEALHNHYTQKSLSLSPGK
notes: also called RANKL-Fcγ fusion protein; RIG protein

Reference: patent US20110243944A1 (SHANGHAI KEXIN BIOTECH, published 2011)
